Where two headings read alike, the source gives them in different places.

These results are taken from patent US20250250357A1 (NANJING ZAIMING PHARMACEUTICAL, published 2025).

Test [1] addresses T1, human MSLN protein endogenously expressed on OVCAR3 tumor cells (human, UniProt Q13421 296-598).
T1 construct: whole, on cells; Endogenous target on OVCAR3 cells; kept apart from the recombinant full-length construct; also called mesothelin
The test is described as follows: FACS on OVCAR3 cells.

Test [2] has as its target T2, human MSLN full-length protein (NCBI: AAH09272.1) expressed on HEK293T-hMSLN-B8 cells (human, UniProt Q13421 296-598).
T2 construct: Whole encoded precursor
The test can be described thus: FACS on HEK293T-hMSLN-B8 cells.

Test [3] concerns the target T3, human MSLN-R3 protein (Met487-Ser606 of NCBI AAH09272.1) expressed on HEK293T-hMSLN-R3 cells (human, UniProt Q13421 487-606).
T3 construct: also called Region3
The test is described as follows: FACS on HEK293T-hMSLN-R3 cells.

The target of test [4] is T4, monkey MSLN full-length protein (NCBI: XP_028696439.1) expressed on HEK293T-monkey MSLN cells (monkey).
T4 construct: Whole encoded precursor
T4 chain: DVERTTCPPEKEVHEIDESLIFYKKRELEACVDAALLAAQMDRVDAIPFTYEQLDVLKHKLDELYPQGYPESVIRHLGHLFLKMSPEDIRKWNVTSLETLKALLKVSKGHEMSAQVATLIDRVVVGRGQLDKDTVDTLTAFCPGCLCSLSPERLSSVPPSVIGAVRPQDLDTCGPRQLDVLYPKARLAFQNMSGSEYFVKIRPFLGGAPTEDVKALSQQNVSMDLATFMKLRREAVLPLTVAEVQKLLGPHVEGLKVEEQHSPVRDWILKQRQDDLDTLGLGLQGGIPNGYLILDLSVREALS
The test is described as follows: FACS on HEK293T-monkey MSLN cells.

For test [5], the target named is T5, human MSLN protein endogenously expressed on OVCAR3 tumor cells (human, UniProt Q13421 296-598).
T5 construct: whole, on cells; endogenous expression on a tumor cell line; also called human mesothelin
The test is described as follows: FACS on OVCAR3 cells.

Test [6] concerns the target T6, human MSLN-R3 protein expressed on HEK293T cells (HEK293T-hMSLN-R3) (human, UniProt Q13421 487-606).
T6 construct: C-terminal limit uncertain
The test can be described thus: FACS on HEK293T-hMSLN-R3 cells.

For test [7], the target named is T7, human MSLN-FL-his protein (human, UniProt Q13421 296-580).
T7 construct: made in HEK293E cells, purified on nickel column; also called hMSLN-FL-his; human MSLN full-length protein; not shown: His tag
The test can be described thus: competitive ELISA; row Tab021.

For test [8], the target named is T7, human MSLN-FL-his protein. The test is described as follows: competitive ELISA; row Tab142. (In an ELISA, binding on a coated surface is turned into a signal by an enzyme label.)
For test [9], the target named is T7, human MSLN-FL-his protein. The test can be described thus: competitive ELISA; row F8-29.1.
In test [10] the target is T7, human MSLN-FL-his protein. The test is described as follows: competitive ELISA; row F8-32.3.
Test [11] addresses T7, human MSLN-FL-his protein. The test can be described thus: competitive ELISA; row F8-8.22.
In test [12] the target is T7, human MSLN-FL-his protein. The test is described as follows: competitive ELISA; row F8-9.16.
The target of test [13] is T7, human MSLN-FL-his protein. The test is described as follows: competitive ELISA; row F8-22.23.
Test [14] addresses T7, human MSLN-FL-his protein. The test is described as follows: competitive ELISA; row F8-24.14.
Test [15] addresses T7, human MSLN-FL-his protein. The test is described as follows: competitive ELISA; row F8-28.23.
For test [16], the target named is T7, human MSLN-FL-his protein. The test is described as follows: competitive ELISA; row F8-33.12.
The target in test [17] is T7, human MSLN-FL-his protein. The test can be described thus: competitive ELISA; row F8-36.12.
Test [18] has as its target T7, human MSLN-FL-his protein. The test can be described thus: SPR (Biacore), antibody captured on Protein A chip.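 Further: flow cell at 25 °C, antigen injected for 240 s at five concentrations from 200 nM downward, dissociation followed up to 600 s, double-referenced, fitted with Langmuir 1:1 model.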

T7 sequence (Q13421 other isoform, or with tags, fused parts or gaps): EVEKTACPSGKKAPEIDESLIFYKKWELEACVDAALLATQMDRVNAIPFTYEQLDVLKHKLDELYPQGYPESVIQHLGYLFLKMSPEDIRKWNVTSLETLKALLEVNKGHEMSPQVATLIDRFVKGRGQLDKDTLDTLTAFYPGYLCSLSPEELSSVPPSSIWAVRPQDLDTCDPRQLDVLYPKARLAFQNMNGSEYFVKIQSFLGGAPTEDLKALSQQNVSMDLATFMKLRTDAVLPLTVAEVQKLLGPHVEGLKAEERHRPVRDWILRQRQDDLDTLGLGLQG
T3 sequence (Q13421 495-614): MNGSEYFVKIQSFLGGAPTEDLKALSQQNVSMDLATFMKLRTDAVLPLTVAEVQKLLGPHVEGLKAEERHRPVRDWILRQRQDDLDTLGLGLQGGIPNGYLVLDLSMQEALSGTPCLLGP
T6 sequence (Q13421 495-614): as above
T2 sequence (Q13421 other isoform, or with tags, fused parts or gaps limits assumed): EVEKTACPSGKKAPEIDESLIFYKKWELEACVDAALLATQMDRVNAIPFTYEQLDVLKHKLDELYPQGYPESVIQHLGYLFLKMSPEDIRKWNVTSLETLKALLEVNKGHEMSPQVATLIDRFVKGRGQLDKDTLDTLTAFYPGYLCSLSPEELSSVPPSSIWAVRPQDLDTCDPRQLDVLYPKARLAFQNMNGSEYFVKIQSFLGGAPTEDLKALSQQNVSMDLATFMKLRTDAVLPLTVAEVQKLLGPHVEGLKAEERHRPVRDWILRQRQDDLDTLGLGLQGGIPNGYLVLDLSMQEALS

B1: S009-F1.7.14 (antibody, human IgG1, kappa)
heavy: not shown
light: QIVLTQSPAIMSASPGEKVTISCSASSSVSYMYWYQQKPGSSPKPWISRTSNLASGVPARFSGSGSGTSYSLTISSMEAEDAATYYCQQYHSYPPTLGAGTKLELKRTVAAPSVFIFPPSDEQLKSGTASVVCLLNNFYPREAKVQWKVDNALQSGNSQESVTEQDSKDSTYSLSSTLTLSKADYEKHKVYACEVTHQGLSSPVTKSFNRGEC
notes: human-murine chimeric antibody, human IgG1/kappa constant regions
As for B1, the “Maximum mean fluorescence intensity” value is 2250 in test [1], 70300 in test [2], 239 in [3] and 47500 in test [4]. Moreover, the EC50 is 3.4 nM in test [2] and 5.69 nM in [4]. The binding result in test [3] is recorded as “no binding”.

B2: S009-F1.2.12 (antibody, human IgG1, kappa, V domains shown)
VH: QVQLKQTGPGLVQPSQSLSITCTVSGFSLTNYAVHWVRQSPGKGLEWLGVIWSGGATDYNTVFISRLSISKDNSKSQVFFKVNSLQVDDTAIYYCARTGSGYAMDYWGQGTSVTVSS
VL: DIVLTQSPATLSVTPGDRVSLSCRTSHNVNTYLHWYQQKSHESPRLLIKYASQSISEIPSRFSGSGSGTNFTLSINSVETEDFGMYFCHQTNRWPLTFGAGTKLELKR
notes: as for B1
As for B2, the EC50 in test [1] is 1.87 nM; in [2] it was approximately 0.86 nM; in test [4], 1.39 nM. Moreover, the “Maximum mean fluorescence intensity” value in test [1] amounted to 9620; in test [2], 87200; in test [3], 239; in test [4], 29200. For the same molecule, the binding result in [3] was “no binding”.

B3: S009-F8-36.12 (antibody, human IgG1, kappa, V domains shown)
VH: EVQLQQSGPELVKPGASVKISCKASGYTFTDYYMNWVKQSHGKSLEWIGDINPNNGGTSYNQKFKGKATLTVDKSSSTAYMELRSLTSEDSAVYYCASWGYGSSSRGYFDYWGQGTTLTVSS
VL: QIVLSQSPAILSASPGEKVTMTCRASSSVSYMHWYQQKPGSSPKPWIYATSNLASGVPARFSGSGSGTSYSLTISRVEAEDAATYYCQQWSSNPWTFGGGTKLEIKR
notes: as for B1
Consider B3, for which the EC50 in [5] stood at 15.2 nM; in test [6] it was 11 nM. In addition, the entries for the “Maximum mean fluorescence intensity” value in test [5] and in test [6] were 2510 and 7970, respectively. Also, the competition rate in test [7] was 6.4%; in [8], 17.4%; in [9] it was 9.4%; in test [10], 9.8%; in test [11], 5.9%; in [12], -47.7%. The competition rate in test [13] was -3.1%; in [14], 10.3%; in [15], -10.7%; in test [16], 8.3%; in [17], 61.5%. The same molecule displayed a Kd in test [18] of 103 nM. In test [18], the koff was 0.0122 s⁻¹. This molecule also yielded a kon in test [18] of 118000 M⁻¹ s⁻¹.

B4: S009-F1.56.1 (antibody, human IgG1, kappa, V domains shown)
VH: EVQLQQSGAEVVKPGASVKLSCTASGFNIRHTYMHWVKQRPEQGLEWIGRIDPANGNTEYDPKFQGKATITADTSSNTAYLQLSSLTSEDTAVYYCARDGWYIDVWGAGTTVTVSS
VL: DIVMSQSPSSLAVSVGEKVTMSCKSSQSLLYSNNQKNYLAWYQQKPGQSPKLLIYWASTRESGVPDRFTGSGSGTDFTLTISSVKAEDLAVYYCQRYYSYPWTFGGGTKLEIKR
notes: as for B1
As for B4, the EC50 in [1] is 0.67 nM; in test [2], 1.59 nM; in test [4], 0.79 nM. Moreover, the “Maximum mean fluorescence intensity” value was found to be 11700 in test [1], 96300 in test [2], 363 in [3] and 43100 in [4]. The binding result in [3] was “no binding”.

B5: S009-F8-24.14 (antibody, human IgG1, kappa, V domains shown)
VH: EFQLQQSGPELVKPGASVKISCKASGYSFTDYNMNWVKLSNGKSLEWIGVIIPNYGTSSYNQKFKGKATLTVDQSSSTAYMQLNSLTSEDSAVYYCARWDNYYGSSLDYWGQGTTLTVSS
VL: DIVMTQSQKFMSTTVGDRVSITCKASQNVGTAVAWYQQKPGQSPKLLIYSASNRYTGVPDRFTGSGSGTDFILTISNMQSEDLADYFCQQYSSYPLTFGAGTKLELKR
notes: as for B1
In test [5], B5 had an EC50 of 11.5 nM. The results for the “Maximum mean fluorescence intensity” value in [5] and in [6] were 4700 and 82, respectively. In addition, in [6], the binding result was “no binding”. Moreover, the competition rate is 5.3% in test [7]; 22.9% in test [8]; 43.7% in test [9]; 57.6% in test [10]; 74.5% in test [11]; -65.5% in [12]. For the same molecule, the competition rate in test [13] is 80.3%; in [14], 77%; in test [15], 95%; in [16] it was 27.8%; in test [17], -142%. Moreover, in [18], the Kd was 9.13 nM. The koff in test [18] was found to be 0.00501 s⁻¹. In addition, the kon in test [18] worked out at 549000 M⁻¹ s⁻¹.

B6: S009-F1.35.24 (antibody, human IgG1, kappa, V domains shown)
VH: EVQLQQSEPELVKPGASVRISCKASGYSFTDYYMHWVKQSPENRLEWIGEINPSTGGTSYNPKFKDKATLTVDKSSSTAYMQLKSLTSEESAVYYCTRYHYYGSSSYVMDYWGQGTSVTVSS
VL: QIVLTQSPAILSASPGERVTMTCSASSSVYHMHWFQQKSGTSPKRWVYDTSKLASGVPARFSGSGSGTSYSLTISSMEAEDAATYYCQHWRTNPLTFGAGTKLELKR
notes: as for B1
In the case of B6, the values for the EC50 in test [1], in [2] and in test [4] were 2.08 nM, 2.93 nM and 4.75 nM, respectively. Moreover, the “Maximum mean fluorescence intensity” value stood at 10500 in [1], 109000 in [2], 680 in [3] and 52100 in test [4]. In addition, the binding result in test [3] is on record as “no binding”.

For orientation: EC50 means the concentration giving half of the maximal effect. Broadly, the Kd is the concentration at which binding is half-saturated. Broadly, the koff is the first-order rate constant of dissociation. One may read the kon as the second-order rate constant of association.
